Measured values published in article PMC4163509 (Molecular and cellular endocrinology, 2014).
Each block holds one molecule with its values, some of them ahead of it.

What was measured:
[1] = target: T1, Methoprene-tolerant (Met) protein, AaMet (Aedes aegypti, UniProt Q58FS0); experiment: [3H]-JH-III dextran-coated charcoal radioligand binding, Scatchard
T1 sequence (Q58FS0 1-597): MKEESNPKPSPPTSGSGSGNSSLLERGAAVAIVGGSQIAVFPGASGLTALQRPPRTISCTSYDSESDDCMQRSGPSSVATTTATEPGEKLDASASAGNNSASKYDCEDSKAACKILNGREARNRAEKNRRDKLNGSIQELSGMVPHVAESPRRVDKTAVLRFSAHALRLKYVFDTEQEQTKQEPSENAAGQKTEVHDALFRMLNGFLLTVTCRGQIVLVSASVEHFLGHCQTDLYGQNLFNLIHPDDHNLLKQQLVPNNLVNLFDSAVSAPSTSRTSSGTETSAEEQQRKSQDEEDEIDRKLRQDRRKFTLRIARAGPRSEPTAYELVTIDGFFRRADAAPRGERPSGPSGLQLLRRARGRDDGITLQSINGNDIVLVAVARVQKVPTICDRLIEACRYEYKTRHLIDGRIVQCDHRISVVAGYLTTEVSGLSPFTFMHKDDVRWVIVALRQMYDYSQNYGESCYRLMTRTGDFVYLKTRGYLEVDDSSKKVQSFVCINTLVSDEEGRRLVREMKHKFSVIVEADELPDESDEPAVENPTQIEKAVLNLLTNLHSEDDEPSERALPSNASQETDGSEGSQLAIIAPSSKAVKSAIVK

[2] = target: bHLH-PAS domain of AaMet fused to the GAL4 DNA-binding domain (Aedes aegypti) (UniProt Q58FS0); experiment: two-hybrid
GST-AaMet (bHLH-PAS) = target: T2, GST-AaMet (bHLH-PAS) (Aedes aegypti, UniProt Q58FS0 1-597); experiment: EMSA
T2 sequence: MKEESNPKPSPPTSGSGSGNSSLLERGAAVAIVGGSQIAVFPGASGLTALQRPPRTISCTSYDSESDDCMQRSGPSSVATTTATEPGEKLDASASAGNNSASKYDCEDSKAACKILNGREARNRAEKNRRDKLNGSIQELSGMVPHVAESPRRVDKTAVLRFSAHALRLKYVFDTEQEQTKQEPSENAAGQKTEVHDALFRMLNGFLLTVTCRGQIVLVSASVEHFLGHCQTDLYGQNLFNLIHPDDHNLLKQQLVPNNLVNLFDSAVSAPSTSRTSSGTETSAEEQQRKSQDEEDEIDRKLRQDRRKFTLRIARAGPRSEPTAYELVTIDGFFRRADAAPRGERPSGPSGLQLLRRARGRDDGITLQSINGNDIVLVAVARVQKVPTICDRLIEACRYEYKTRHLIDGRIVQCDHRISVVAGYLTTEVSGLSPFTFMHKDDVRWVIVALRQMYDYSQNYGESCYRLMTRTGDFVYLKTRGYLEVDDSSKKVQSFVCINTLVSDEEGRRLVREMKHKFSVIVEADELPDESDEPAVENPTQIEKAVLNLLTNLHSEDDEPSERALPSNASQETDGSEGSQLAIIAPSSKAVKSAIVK

Molecule: COC(=O)/C=C(\C)CC/C=C(\C)CC[C@H]1OC1(C)C [JH-III]
Kd [1]: 4.4 ± 1.9 nM

fold enhancement of two-hybrid reporter activation with JH-III [2]: > 20 fold
Molecule: bHLH-PAS domain of AaFISC fused to the activation domain of GAL4 (domain or fragment)

B1: AaET_JHRE1 (dsDNA)
DNA 1: CCATCCCACACGCGAAGACGATAAAACCA
DNA 2: TGGTTTTATCGTCTTCGCGTGTGGGATGG
binding result (GST-AaMet (bHLH-PAS)): no binding
